Among the data in the Human Domainome abundance scans (Beltran et al. 2025) are abundance fitness values, retold here.

The chains are these.
B1: E3 ubiquitin-protein ligase TRIM36, residues 208 to 252; numbered along this chain, Q9NQ86 (parent)
chain: KILMCPEHETERINMYCELCRRPVCHLCKLGGNHANHRVTTMSSA

± gives the uncertainty stated by the source.

The variants in this data set derive from B1. As to the kind of experiment: abundance fitness (aPCA) (normalised: wild type 0, dead -1); higher = more abundant; growth selection in yeast, the domain comes from the species named. The following applies: Homo sapiens.
For KILMCPEHETERINMYCELCRRPVCHLCKLGGVHANHRVTTMSSA [N33V], the abundance fitness was 0.039 ± 0.055.

KILMCPEHETERINMYCELCRRPVCHLCKLGGWHANHRVTTMSSA [N33W]: the abundance fitness was -0.178 ± 0.062.

For the variant KILMCPEHETERINMYCELCRRPVCHLCKLGGYHANHRVTTMSSA [N33Y], the abundance fitness was -0.153 ± 0.066.

As to KILMCPEHETERINMYCELCRRPVCHLCKLGGNRANHRVTTMSSA [H34R], the abundance fitness was -0.541 ± 0.048.

As for KILMCPEHETERINMYCELCRRPVCHLCKLGGNNANHRVTTMSSA [H34N], the abundance fitness is -0.46 ± 0.084.

For KILMCPEHETERINMYCELCRRPVCHLCKLGGNEANHRVTTMSSA [H34E], the abundance fitness is -0.272 ± 0.055.

With KILMCPEHETERINMYCELCRRPVCHLCKLGGNCANHRVTTMSSA [H34C], the abundance fitness is 0.033 ± 0.06.

On to KILMCPEHETERINMYCELCRRPVCHLCKLGGNFANHRVTTMSSA [H34F], for which the abundance fitness was -0.614 ± 0.19.

Regarding KILMCPEHETERINMYCELCRRPVCHLCKLGGNWANHRVTTMSSA [H34W], the abundance fitness is -0.733 ± 0.063.

Regarding KILMCPEHETERINMYCELCRRPVCHLCKLGGNTANHRVTTMSSA [H34T], the abundance fitness is -0.338 ± 0.063.

For KILMCPEHETERINMYCELCRRPVCHLCKLGGNKANHRVTTMSSA [H34K], the abundance fitness was -0.485 ± 0.059.

Turning to KILMCPEHETERINMYCELCRRPVCHLCKLGGNAANHRVTTMSSA [H34A], the abundance fitness was -0.334 ± 0.05.

Consider KILMCPEHETERINMYCELCRRPVCHLCKLGGNMANHRVTTMSSA [H34M], for which the abundance fitness was -0.431 ± 0.059.

Turning to KILMCPEHETERINMYCELCRRPVCHLCKLGGNDANHRVTTMSSA [H34D], the abundance fitness was -0.326 ± 0.066.

Consider KILMCPEHETERINMYCELCRRPVCHLCKLGGNSANHRVTTMSSA [H34S], for which the abundance fitness is -0.318 ± 0.054.

For KILMCPEHETERINMYCELCRRPVCHLCKLGGNYANHRVTTMSSA [H34Y], the abundance fitness is -0.562 ± 0.072.

Regarding KILMCPEHETERINMYCELCRRPVCHLCKLGGNGANHRVTTMSSA [H34G], the abundance fitness is -0.288 ± 0.049.

In the case of KILMCPEHETERINMYCELCRRPVCHLCKLGGNVANHRVTTMSSA [H34V], the abundance fitness was -0.444 ± 0.056.

Turning to KILMCPEHETERINMYCELCRRPVCHLCKLGGNPANHRVTTMSSA [H34P], the abundance fitness is -0.391 ± 0.078.

For KILMCPEHETERINMYCELCRRPVCHLCKLGGNIANHRVTTMSSA [H34I], the abundance fitness is -0.738 ± 0.15.

In the case of KILMCPEHETERINMYCELCRRPVCHLCKLGGNHANDRVTTMSSA [H37D], the abundance fitness was -0.217 ± 0.063.

For the variant KILMCPEHETERINMYCELCRRPVCHLCKLGGNHANERVTTMSSA [H37E], the abundance fitness is -0.038 ± 0.054.

For the variant KILMCPEHETERINMYCELCRRPVCHLCKLGGNHANCRVTTMSSA [H37C], the abundance fitness was -0.007 ± 0.061.

Consider KILMCPEHETERINMYCELCRRPVCHLCKLGGNHANARVTTMSSA [H37A], for which the abundance fitness is -0.027 ± 0.051.

In the case of KILMCPEHETERINMYCELCRRPVCHLCKLGGNHANFRVTTMSSA [H37F], the abundance fitness was -0.486 ± 0.092.

For the variant KILMCPEHETERINMYCELCRRPVCHLCKLGGNHKNHRVTTMSSA [A35K], the abundance fitness was -0.078 ± 0.072.

On to KILMCPEHETERINMYCELCRRPVCHLCKLGGNHWNHRVTTMSSA [A35W], for which the abundance fitness is -0.309 ± 0.053.

Turning to KILMCPEHETERINMYCELCRRPVCHLCKLGGNHINHRVTTMSSA [A35I], the abundance fitness was 0.255 ± 0.49.

For KILMCPEHETERINMYCELCRRPVCHLCKLGGNHPNHRVTTMSSA [A35P], the abundance fitness is -0.182 ± 0.074.

Regarding KILMCPEHETERINMYCELCRRPVCHLCKLGGNHTNHRVTTMSSA [A35T], the abundance fitness was -0.068 ± 0.056.

For KILMCPEHETERINMYCELCRRPVCHLCKLGGNHRNHRVTTMSSA [A35R], the abundance fitness is -0.129 ± 0.048.

As for KILMCPEHETERINMYCELCRRPVCHLCKLGGNHSNHRVTTMSSA [A35S], the abundance fitness is -0.052 ± 0.054.

Turning to KILMCPEHETERINMYCELCRRPVCHLCKLGGNHQNHRVTTMSSA [A35Q], the abundance fitness was -0.05 ± 0.07.

For KILMCPEHETERINMYCELCRRPVCHLCKLGGNHHNHRVTTMSSA [A35H], the abundance fitness was -0.149 ± 0.098.

With KILMCPEHETERINMYCELCRRPVCHLCKLGGNHENHRVTTMSSA [A35E], the abundance fitness worked out at 0.009 ± 0.075.

Turning to KILMCPEHETERINMYCELCRRPVCHLCKLGGNHVNHRVTTMSSA [A35V], the abundance fitness is -0.011 ± 0.05.

Take KILMCPEHETERINMYCELCRRPVCHLCKLGGNHNNHRVTTMSSA [A35N]: the abundance fitness is -0.339 ± 0.12.

For the variant KILMCPEHETERINMYCELCRRPVCHLCKLGGNHLNHRVTTMSSA [A35L], the abundance fitness was -0.091 ± 0.056.

Turning to KILMCPEHETERINMYCELCRRPVCHLCKLGGNHYNHRVTTMSSA [A35Y], the abundance fitness is -0.137 ± 0.09.

KILMCPEHETERINMYCELCRRPVCHLCKLGGNHDNHRVTTMSSA [A35D]: the abundance fitness worked out at 0.085 ± 0.098.

In the case of KILMCPEHETERINMYCELCRRPVCHLCKLGGNHALHRVTTMSSA [N36L], the abundance fitness is -0.097 ± 0.049.

Consider KILMCPEHETERINMYCELCRRPVCHLCKLGGNHATHRVTTMSSA [N36T], for which the abundance fitness is -0.024 ± 0.054.

As to KILMCPEHETERINMYCELCRRPVCHLCKLGGNHACHRVTTMSSA [N36C], the abundance fitness is -0.017 ± 0.067.

Turning to KILMCPEHETERINMYCELCRRPVCHLCKLGGNHAEHRVTTMSSA [N36E], the abundance fitness turned out to be 0.039 ± 0.064.

Consider KILMCPEHETERINMYCELCRRPVCHLCKLGGNHAAHRVTTMSSA [N36A], for which the abundance fitness is 0.029 ± 0.049.

On to KILMCPEHETERINMYCELCRRPVCHLCKLGGNHAKHRVTTMSSA [N36K], for which the abundance fitness is -0.023 ± 0.08.

Regarding KILMCPEHETERINMYCELCRRPVCHLCKLGGNHAMHRVTTMSSA [N36M], the abundance fitness is -0.109 ± 0.068.

On to KILMCPEHETERINMYCELCRRPVCHLCKLGGNHAYHRVTTMSSA [N36Y], for which the abundance fitness was -0.147 ± 0.089.

Consider KILMCPEHETERINMYCELCRRPVCHLCKLGGNHAFHRVTTMSSA [N36F], for which the abundance fitness was -0.017 ± 0.15.

Regarding KILMCPEHETERINMYCELCRRPVCHLCKLGGNHAGHRVTTMSSA [N36G], the abundance fitness was -0.059 ± 0.053.

For KILMCPEHETERINMYCELCRRPVCHLCKLGGNHAQHRVTTMSSA [N36Q], the abundance fitness came out at 0.021 ± 0.063.

Take KILMCPEHETERINMYCELCRRPVCHLCKLGGNHAIHRVTTMSSA [N36I]: the abundance fitness is -0.225 ± 0.066.

In the case of KILMCPEHETERINMYCELCRRPVCHLCKLGGNHAHHRVTTMSSA [N36H], the abundance fitness was -0.05 ± 0.058.

For KILMCPEHETERINMYCELCRRPVCHLCKLGGNHADHRVTTMSSA [N36D], the abundance fitness was -0.005 ± 0.077.

Regarding KILMCPEHETERINMYCELCRRPVCHLCKLGGNHAVHRVTTMSSA [N36V], the abundance fitness was -0.202 ± 0.052.

On to KILMCPEHETERINMYCELCRRPVCHLCKLGGNHASHRVTTMSSA [N36S], for which the abundance fitness is -0.052 ± 0.051.

For the variant KILMCPEHETERINMYCELCRRPVCHLCKLGGNHAWHRVTTMSSA [N36W], the abundance fitness is -0.299 ± 0.051.
